Assay results from patent publication US11555055B2, “Peptide inhibitors of insulin-degrading enzyme” (The Regents of the University of California, priority 2017, dated 2023).
Each block holds one molecule with its values, some of them ahead of it. Bridges are numbered along the chain shown (N, C = ends). Where no end group is shown, it is not given here.

What was measured:
[1] = tested on: multiple matrix-metalloproteases (MMPs); assay: Matrix Metalloproteinase (MMP) Inhibitor Profiling Kit, positive control; type: biochemical; conditions: P<0.01
Protocol: FIG. 8A-B. Selectivity of P12-3A for IDE vis-à-vis other proteases. Activity of P12-3A (100 μM) against (A) multiple matrix-metalloproteases (MMPs) and (B) multiple peptidases of different protease classes. […] Data are mean±SEM, n=8-16 per group. P<0.05 by 2-tailed Student's t-test. […] See Experimental Procedures for details. NEP, neprilysin; mCatD, murine cathepsin D; hCatD, human cathepsin D.
Degradation Assays—IDE activity was quantified by monitoring the degradation of (7-methoxycoumarin-4-yl)acetic acid-[…](2,4-dinitrophenyl) (FRET1, 5 μM) (49,55), fluoresceinated and biotinylated amyloid β-protein (FAβB; 500 nM) or recombinant human insulin (50 nM) in PBS supplemented with 0.05% BSA. FRET1 degradation was measured by changes in fluorescence (λex=340 nm, λem=420 nm); FAβB degradation was monitored by fluorescence polarization (λex=488 nm, λem=525 nm), as described (56); and insulin degradation was quantified by ELISA. In vitro activity assays incorporated recombinant human IDE (1 nM) purified from bacteria (35). For quantitation of insulin degradation in primary murine skin fibroblasts, cells (1×10^5/well) were plated in 96-well plates and maintained in DMEM supplemented with 10% fetal bovine serum (FBS), 2 mM glutamine, penicillin and streptomycin. […]

[2] = biological target: T1, recombinant human insulin-degrading enzyme (IDE) (human, UniProt P14735 42-1019, limits assumed); assay: IDE activity assay, FRET1 substrate; IC50 converted to Ki (Cheng-Prusoff)
T1 construct: Used at 1 nM in the in vitro activity assays; immobilised on plates for phage panning
T1 sequence (looked up): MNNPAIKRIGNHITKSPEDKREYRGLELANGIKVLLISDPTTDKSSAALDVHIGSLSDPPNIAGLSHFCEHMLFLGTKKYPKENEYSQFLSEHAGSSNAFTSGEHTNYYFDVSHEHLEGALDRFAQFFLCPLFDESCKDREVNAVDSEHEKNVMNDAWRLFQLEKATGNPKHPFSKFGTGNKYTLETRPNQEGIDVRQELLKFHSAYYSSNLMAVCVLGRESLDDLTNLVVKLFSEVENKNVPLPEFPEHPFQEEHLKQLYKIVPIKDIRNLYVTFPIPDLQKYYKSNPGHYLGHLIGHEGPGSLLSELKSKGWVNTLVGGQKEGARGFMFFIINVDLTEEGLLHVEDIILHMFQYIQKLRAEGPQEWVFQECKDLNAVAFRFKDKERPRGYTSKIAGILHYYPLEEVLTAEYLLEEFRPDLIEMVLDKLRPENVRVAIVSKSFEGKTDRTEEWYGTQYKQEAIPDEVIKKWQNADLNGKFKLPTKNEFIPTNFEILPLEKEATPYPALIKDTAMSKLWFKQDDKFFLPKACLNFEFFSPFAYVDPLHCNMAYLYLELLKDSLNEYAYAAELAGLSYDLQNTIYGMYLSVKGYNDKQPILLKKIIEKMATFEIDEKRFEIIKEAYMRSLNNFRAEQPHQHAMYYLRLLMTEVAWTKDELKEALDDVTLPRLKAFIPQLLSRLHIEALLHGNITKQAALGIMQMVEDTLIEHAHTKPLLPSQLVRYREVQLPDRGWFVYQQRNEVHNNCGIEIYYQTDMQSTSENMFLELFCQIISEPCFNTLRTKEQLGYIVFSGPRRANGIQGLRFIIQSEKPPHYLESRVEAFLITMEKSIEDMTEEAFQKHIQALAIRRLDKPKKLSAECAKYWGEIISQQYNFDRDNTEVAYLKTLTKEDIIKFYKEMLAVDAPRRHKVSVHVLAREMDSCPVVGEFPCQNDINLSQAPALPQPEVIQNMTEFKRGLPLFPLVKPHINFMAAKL

[3] = biological target: T1, recombinant human insulin-degrading …; assay: IDE activity assay, insulin substrate (ELISA); IC50 converted to Ki (Cheng-Prusoff)
[4] = biological target: T1, recombinant human insulin-degrading …; assay: IDE activity assay, FRET1 degradation
[5] = biological target: T1, recombinant human insulin-degrading …; assay: IDE activity assay, FAβB degradation (fluorescence polarization)
[6] = biological target: T1, recombinant human insulin-degrading …; assay: FRET1 activity assay after 0 or 4 h pre-incubation of the peptide with IDE

Molecule: COc1ccc(S(=O)(=O)N(CC(=O)NO)CC(C)C)cc1 [NNGH]
inhibition of MMPs by positive control [1]: significant inhibition

Ki [2]: 8.9 µM
Ki [3]: 3.9 µM
B1: P12-3 (peptide)
peptide: H-QSLPWCYPHCVT-OH
modifications: not fully specified; cysteine pairing not given here
notes: Two cysteines predicted to form a disulfide bond; not deliberately cyclized before testing

Ki [4]: 2.7 µM
Ki [5]: 2.1 µM
B2: P12-3A, deliberately cyclized, highly pure cosmetic-grade version (peptide)
peptide: QSLPWCYPHCVT-NH2
modifications: disulfide 6-10 (inferred)
notes: also called cyclized P12-3A

fold increase in potency at the 4-h time point relative to t=0 [6]: 1 fold
B3: P12-3A (QSLPWCYPHCVT-amide), as first synthesized, not deliberately cyclized (peptide)
peptide: H-QSLPWCYPHCVT-NH2
modifications: not fully specified; printed as QSLPWCYPHCVT-amide; cysteine pairing not given here
notes: also called C-terminally amidated variant of P12-3
